From US20210047395A1 (Hoffmann-La Roche, published 2021)
Positions count from the first letter of the chain named. Numbers in names are those of the source.

What was measured:
[1] = biological target: T1, VEGF-121-His (inhouse production) (human, UniProt P15692 207-395); assay: VEGF:VEGF-R1 inhibition ELISA (Example 4, as Example 2): 0.34 nM VEGF-121-His pre-incubated with the Fab, then added to plate-bound biotinylated VEGF-R1, anti-His POD detection; blocked partner: VEGF-R1
T1 construct: Treated as one molecule; also called hVEGF-A121; not shown: His tag
T1 sequence: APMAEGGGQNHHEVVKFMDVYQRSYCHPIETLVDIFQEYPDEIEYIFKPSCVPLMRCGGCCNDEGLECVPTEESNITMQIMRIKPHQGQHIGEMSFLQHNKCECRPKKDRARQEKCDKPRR

[2] = biological target: T1, VEGF-121-His (inhouse production); assay: VEGF:VEGF-R1 inhibition ELISA (Example 4, as Example 2): 0.7 nM VEGF-121-His pre-incubated with the Fab, then added to plate-bound biotinylated VEGF-R1, anti-His POD detection; blocked partner: VEGF-R1
Experimental: Plates were incubated for 1 h at room temperature. […] Plates were incubated for 1 h at room temperature. […] After washing 3 times with 90 μl/well PBST-buffer, 25 μl/well detection antibody (anti His POD, Bethyl, #A190-114P, 1:12000) in 1×OSEP was added. After incubation for 1 h at room temperature plates were washed 3 times with 90 μl PBST-buffer. 25 μl TMB (Roche, #11 835 033 001) was added to all wells simultaneously. After 10 min incubation at room temperature, signals were detected at 370 nm/492 nm on a Tecan Safire 2 Reader.

[3] = biological target: T1, VEGF-121-His (inhouse production); assay: SPR, hVEGF-A121 captured by anti-His antibody, 37 C
Experimental: (§1) An anti-His capturing antibody (GE Healthcare 28995056) was immobilized to a Series S Sensor Chip C1 (GE Healthcare 29104990) using standard amine coupling chemistry resulting in a surface densitiy of 500-1000 resonance units (RU). […] The surface was regenerated by injecting 10 mM Glycine pH 1.5 for 60 s. […] Rate constants were calculated using the Langmuir 1:1 binding model within the Biacore Evaluation software.
(§2) The affinity of the antibodies was determined by SPR using the same methods as described in Example 2.

[4] = biological target: T2, VEGF (as used in the Biacore active concentration test of Example 6) (Homo sapiens (Human), UniProt P15692 27-147, VEGF is a disulfide-linked homodimer; one protomer is given); assay: Biacore, normalized to unstressed aliquot; Fab stressed 2 w/37 C/pH 7.4
T2 sequence: T1 sequence
Experimental: (§3) Antibody samples were formulated in 20 mM His/HisCl, 140 mM NaCl, pH 6.0, and were split into three aliquots: one aliquot was re-buffered into PBS, respectively, and two aliquots were kept in the original formulation. The PBS aliquot and one His/HisC1 aliquot were incubated for 2 weeks (2 w) at 40° C. (His/NaCl) or 37° C. (PBS) in 1 mg/ml, the PBS sample was incubated further for total 4 weeks (4 w). The third control aliquot sample was stored at −80° C.

[5] = biological target: T2, VEGF (as used in the Biacore active …); assay: Biacore, normalized to unstressed aliquot; Fab stressed 4 w/37 C/pH 7.4
Experimental: as §3

[6] = biological target: T2, VEGF (as used in the Biacore active …); assay: Biacore, normalized to unstressed aliquot; Fab stressed 2 w/40 C/pH 6.0
Experimental: as §3

[7] = biological target: T1, VEGF-121-His (inhouse production); assay: SPR, hVEGF-A121 captured by anti-His antibody, 25 C
Experimental: as §1, §2

B1: VEGF-P1AD8674 Fab (Fab, V domains shown)
VH: EVQLVESGGGLVQPGGSLRLSCAASGFTFTNYAMTWVRQAPGKGLEWVSSIGNGGGIYTYYADSVKGRFTISRNNAENTLYLQMNSLRAEDTAVYYCAKGDNLFDSWGPGTLVTVSS
VL: DIQMTQSPASLSASVGDRVTITCRASQSIYSSLNWYQQKPGKAPKLLIYASTLQSGVPSRFSGSASGTDFTLTISSLQPEDVATYYCQQYQNFPRTFGQGTKLEIKR
binding result [1]: binds

B2: VEGF-0112 Fab (Fab, V domains shown)
VH: B1 VH with N53S, N74D, A76S, E77K
VL: B1 VL
binding result [2]: binds

B3: VEGF-P1AE3519 Fab (Fab, V domains shown)
VH: B1 VH with N53S, N74D, A76W, E77K
VL: B1 VL
notes: Control variant of VEGF-0089 with N52aS in H-CDR2 and S74W in H-FR3 (Kabat)
Kd [3]: 0.094 nM
VEGF-binding activity after stress (relative active concentration) [4]: 102
VEGF-binding activity after stress (relative active concentration) [5]: 102
VEGF-binding activity after stress (relative active concentration) [6]: 102
Kd [7]: 0.119 nM
